# Measured values taken from US20050130151.
# Tested on: FMRP RGG box (isolated, C-terminal deletion construct) (Homo sapiens), Q06787-9
# Assay: filter
substance,measurement,value
28S rRNA fragment (230 nt),Kd,> 5 µM
